Substitutions are numbered along the chain they refer to.
B1: C17F319 Fab variant W100a to F (Fab, V domains shown)
VH: EVQLVQSGAEVKKPGESLKISCKGSGYSFTSYWIGWVRQMPGKGLEWMGIIDPSDSDTRYSPSFQGQVTISADKSISTAYLQWSSLKASDTAMYYCARVGPADVFDSFDYWGQGTLVTVSS
VL: DIVMTQSPDSLAVSLGERATINCKSSQSVLLSPWNSNQLAWYQQKPGQPPKLLIYGASTRESGVPDRFSGSGSGTDFTLTISSLQAEDVAVYYCQQYYLIPSTFGQGTKVEIK
notes: also called W→F
B2: C17F319 Fab variant W100a to T (Fab, V domains shown)
VH: B1 VH with F105T
VL: B1 VL
notes: also called W→T
B3: C17F319 Fab variant W100a to Y (Fab, V domains shown)
VH: B1 VH with F105Y
VL: B1 VL
notes: also called W→Y
B4: C17F319 Fab variant W100a to R (Fab, V domains shown)
VH: B1 VH with F105R
VL: B1 VL
notes: also called W→R
B5: C17F319 Fab variant W100a to I (Fab, V domains shown)
VH: B1 VH with F105I
VL: B1 VL
notes: also called W→I

What follows are binders tested against T1, cyno CCL17 (Macaca fascicularis (cyno), UniProt Q8HYP9 24-94 (rhesus entry)) (assay: ranking Fab ELISA with bt-human and bt-cyno CCL17).
T1 construct: Biotinylated in the ELISA screens; also called cCCL17; Macaca fascicularis CCL17
T1 sequence: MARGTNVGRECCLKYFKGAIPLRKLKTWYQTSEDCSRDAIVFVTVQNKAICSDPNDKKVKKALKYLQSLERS
B1: binds. B2: binds. B3: binds. B4: binds. B5: binds.

The binders below were run against T2, human CCL17 (human, UniProt Q92583 24-94) (assay: ranking Fab ELISA with bt-human and bt-cyno CCL17).
T2 construct: Biotinylated in the ELISA screens; also called huCCL17; Bt-huCCL17
T2 sequence: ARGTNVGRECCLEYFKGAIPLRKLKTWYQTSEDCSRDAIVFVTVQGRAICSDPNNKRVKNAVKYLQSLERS
B1: binds. B3: binds. B5: binds.

Reference: US20150125458A1 (Janssen / Centocor, published 2015)
